From patent US20220227861A1 (UNIVERSITY COLLEGE CARDIFF CONSULTANTS, published 2022) come the findings set out here.

The target in this assay is T1, ZIP10 (SLC39A10) zinc transporter, endogenous in cells (human, UniProt Q9ULF5 26-831).
T1 construct: Endogenous ZIP10 of MCF-7 cells or of ZIP6-transfected cells
T1 sequence: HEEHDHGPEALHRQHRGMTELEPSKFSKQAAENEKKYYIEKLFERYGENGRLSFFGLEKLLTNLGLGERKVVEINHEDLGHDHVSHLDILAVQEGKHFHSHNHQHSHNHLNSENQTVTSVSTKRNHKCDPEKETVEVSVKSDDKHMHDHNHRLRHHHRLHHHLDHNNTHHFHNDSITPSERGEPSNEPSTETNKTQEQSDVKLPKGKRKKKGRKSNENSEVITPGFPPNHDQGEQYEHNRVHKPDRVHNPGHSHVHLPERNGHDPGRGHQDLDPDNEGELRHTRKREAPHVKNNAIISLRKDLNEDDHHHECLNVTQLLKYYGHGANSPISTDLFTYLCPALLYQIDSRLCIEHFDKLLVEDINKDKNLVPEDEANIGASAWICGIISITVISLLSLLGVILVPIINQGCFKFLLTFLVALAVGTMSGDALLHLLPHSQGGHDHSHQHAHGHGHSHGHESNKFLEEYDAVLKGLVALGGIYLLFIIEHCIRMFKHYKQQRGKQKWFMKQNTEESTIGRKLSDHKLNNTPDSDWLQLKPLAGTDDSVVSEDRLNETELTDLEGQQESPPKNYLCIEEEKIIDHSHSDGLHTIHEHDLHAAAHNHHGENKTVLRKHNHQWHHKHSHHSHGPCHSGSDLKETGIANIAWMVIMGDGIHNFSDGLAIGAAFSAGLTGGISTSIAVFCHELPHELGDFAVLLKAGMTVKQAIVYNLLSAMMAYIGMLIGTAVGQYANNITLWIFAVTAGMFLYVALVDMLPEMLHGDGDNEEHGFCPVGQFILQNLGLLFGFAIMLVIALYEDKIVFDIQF
Nature of the assay: immunoprecipitation with V5 antibody, Western blot for ZIP10. Here is the method:
FIG. 2. […] [A] FACS cell cycle analysis confirms the increase in the G2/M population in nocodazole-treated cells, compared to control. […] Statistical significance is determined by Student's t test. *** p<0.001. [B] Control PLA using either our ZIP6-Y or our ZIP10 antibodies alone in nocodazole-treated MCF-7 cells produces only a few dots in mitotic cells (arrow), compared to FIG. 3D. Scale bar, 20 μm. [C] […] [D] FACS cell cycle analysis confirms the increase in the G2/M population in the non-adherent cells collected using the mitotic shake-off technique, compared to the adherent cells from the same dishes. […] Statistical significance is determined by Student's t test. *** p<0.001. [E] PLA using ZIP6-SC and pY⁷⁰⁵STAT3 antibodies together as well as individual control ZIP6-SC and […] antibodies in nocodazole-treated MCF-7 cells produces only few dots, compared to FIG. 5F.
Cells were harvested, washed with PBS, lysed for 1 hour at 4° C. with lysis buffer pH7.6 (50 mM Tris, 150 mM NaCl, 5 mM EGTA and 1% Triton X-100) with protease inhibitor cocktail for mammalian cells (Signa-Aldrich) and phosphatase inhibitors (2 mM sodium orthovanadate and 50 mM sodium fluoride). Protein was measured using Bio-Rad/Bradford dye-binding protein microassay. Western Blot results of 40 μg/lane from three separate experiments were normalised to GAPDH values. […]
(A western blot detects proteins with antibodies after separation by electrophoresis.)

B1: recombinant ZIP6 wild-type with C-terminal V5 tag (other)
chain: FPQTTEKISPNWESGINVDLAISTRQYHLQQLFYRYGENNSLSVEGFRKLLQNIGIDKIKRIHIHHDHDHHSDHEHHSDHERHSDHEHHSEHEHHSDHDHHSHHNHAASGKNKRKALCPDHDSDSSGKDPRNSQGKGAHRPEHASGRRNVKDSVSASEVTSTVYNTVSEGTHFLETIETPRPGKLFPKDVSSSTPPSVTSKSRVSRLAGRKTNESVSEPRKGFMYSRNTNENPQECFNASKLLTSHGMGIQVPLNATEFNYLCPAIINQIDARSCLIHTSEKKAEIPPKTYSLQIAWVGGFIAISIISFLSLLGVILVPLMNRVFFKFLLSFLVALAVGTLSGDAFLHLLPHSHASHHHSHSHEEPAMEMKRGPLFSHLSSQNIEESAYFDSTWKGLTALGGLYFMFLVEHVLTLIKQFKDKKKKNQKKPENDDDVEIKKQLSKYESQLSTNEEKVDTDDRTEGYLRADSQEPSHFDSQQPAVLEEEEVMIAHAHPQEVYNEYVPRGCKNKCHSHFHDTLGQSDDLIHHHHDYHHILHHHHHQNHHPHSHSQRYSREELKDAGVATLAWMVIMGDGLHNFSDGLAIGAAFTEGLSSGLSTSVAVFCHELPHELGDFAVLLKAGMTVKQAVLYNALSAMLAYLGMATGIFIGHYAENVSMWIFALTAGLFMYVALVDMVPEMLHNDASDHGCSRWGYFFLQNAGMLLGFGIMLLISIFEHKIVFRINF
notes: Expressed by transfection and immunoprecipitated from cell lysate with V5 antibody; also called ZIP6 wild-type (WT); ZIP6/LIV-1/SLC39A6 in pcDNA3.1/V5-His-TOPO; not shown: C-terminal V5 tag from vector pcDNA3.1/V5-His-TOPO
Turning to B1, the binding result was “binds”.
